This test deals with Met (hepatocyte growth factor receptor) on Hep3B cells (human) (UniProt P08581). Nature of the test: flow cytometry saturation binding of Alexa Fluor 647-labeled protocells (0.015 wt % MC40, about 6 peptides/particle) on cytochalasin D-treated Hep3B cells; non-specific binding measured with saturating unlabeled hepatocyte growth factor and subtracted. Background: Flow cytometry measures light scatter and fluorescence of single cells or particles in a stream.
Chain of UniProt P08581 (P08581 25-1390): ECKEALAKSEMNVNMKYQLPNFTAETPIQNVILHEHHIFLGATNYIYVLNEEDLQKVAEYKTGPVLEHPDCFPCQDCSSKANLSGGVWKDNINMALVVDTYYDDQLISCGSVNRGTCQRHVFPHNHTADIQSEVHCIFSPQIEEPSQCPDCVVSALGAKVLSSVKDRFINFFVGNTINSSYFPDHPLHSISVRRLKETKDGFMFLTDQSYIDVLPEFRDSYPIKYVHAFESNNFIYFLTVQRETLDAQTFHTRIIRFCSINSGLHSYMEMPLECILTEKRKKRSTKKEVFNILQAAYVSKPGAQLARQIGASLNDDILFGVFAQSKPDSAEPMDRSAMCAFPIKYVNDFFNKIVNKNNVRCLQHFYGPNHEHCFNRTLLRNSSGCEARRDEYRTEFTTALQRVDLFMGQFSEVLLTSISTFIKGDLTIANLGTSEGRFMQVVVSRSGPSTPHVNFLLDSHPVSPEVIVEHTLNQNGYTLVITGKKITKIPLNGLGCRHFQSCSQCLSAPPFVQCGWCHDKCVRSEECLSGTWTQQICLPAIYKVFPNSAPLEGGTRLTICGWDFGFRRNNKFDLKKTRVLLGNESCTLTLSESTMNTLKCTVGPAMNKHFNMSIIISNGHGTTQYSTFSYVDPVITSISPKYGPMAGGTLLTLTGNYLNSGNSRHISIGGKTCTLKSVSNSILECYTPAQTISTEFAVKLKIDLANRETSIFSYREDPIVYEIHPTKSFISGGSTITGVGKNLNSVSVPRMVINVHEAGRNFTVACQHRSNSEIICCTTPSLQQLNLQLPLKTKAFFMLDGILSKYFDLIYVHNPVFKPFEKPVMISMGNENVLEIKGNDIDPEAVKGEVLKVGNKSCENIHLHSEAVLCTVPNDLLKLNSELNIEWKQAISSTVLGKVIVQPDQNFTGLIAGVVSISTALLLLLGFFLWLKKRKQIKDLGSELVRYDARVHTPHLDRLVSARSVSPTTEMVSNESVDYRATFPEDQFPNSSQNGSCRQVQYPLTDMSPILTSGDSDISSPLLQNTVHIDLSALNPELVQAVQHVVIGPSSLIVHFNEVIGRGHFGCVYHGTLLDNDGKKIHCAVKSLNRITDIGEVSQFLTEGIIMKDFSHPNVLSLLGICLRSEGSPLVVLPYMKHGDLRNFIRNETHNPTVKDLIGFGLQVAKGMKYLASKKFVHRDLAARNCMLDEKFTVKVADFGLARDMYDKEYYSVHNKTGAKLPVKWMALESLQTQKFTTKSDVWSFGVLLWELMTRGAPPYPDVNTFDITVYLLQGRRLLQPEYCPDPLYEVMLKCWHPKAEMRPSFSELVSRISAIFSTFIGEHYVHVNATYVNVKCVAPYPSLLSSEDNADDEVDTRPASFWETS

As for “MC40-targeted protocells (mesoporous silica nanoparticle-supported lipid bilayer modified with 0.015 wt % MC40 targeting peptide)”, the Kd was found to be 1.05 nM.

One may read the Kd as the equilibrium constant for the complex coming apart. Low readings indicate higher affinity, high ones lower affinity.

The record behind these values is patent US20200197536A1.
